# Assays:
# HLA-A*11:01 [1] = experiment: IEDB peptide-MHC binding, purified MHC/competitive/fluorescence; ≥ and ≤ were set here for values at or beyond the usual limits of such assays
# HLA-A*02:02 = experiment: IEDB peptide-MHC binding, purified MHC/competitive/radioactivity; filed as Kd, often an IC50 or EC50 that approximates it; ≥ and ≤ were set here for values at or beyond the usual limits of such assays
# HLA-A*68:02 [2] = experiment: as above
# HLA-A*02:03 = experiment: as above
# HLA-A*02:01 [3] = experiment: as above
# HLA-A*02:06 = experiment: as above
# HLA-B*15:03 = experiment: as above
# HLA-A*01:01 = experiment: IEDB peptide-MHC binding, purified MHC/direct/fluorescence; filed as Kd, often an IC50 or EC50 that approximates it; ≥ and ≤ were set here for values at or beyond the usual limits of such assays
# HLA-A*68:02 [4] = experiment: as above; conditions: source organism: Orthohantavirus tulaense
# HLA-A*03:01 [5] = experiment: IEDB peptide-MHC binding, purified MHC/competitive/fluorescence; filed as Kd, often an IC50 or EC50 that approximates it; ≥ and ≤ were set here for values at or beyond the usual limits of such assays; conditions: source organism: Orthohantavirus tulaense
# HLA-B*51:01 = experiment: as above; conditions: source organism: Orthohantavirus tulaense
# HLA-A*69:01 [6] = experiment: as above; conditions: source organism: Orthohantavirus tulaense
# HLA-B*39:01 = experiment: as above; conditions: source organism: Orthohantavirus tulaense
# HLA-B*57:01 [7] = experiment: as above; conditions: source organism: Orthohantavirus tulaense
# HLA-B*27:03 = experiment: as above; conditions: source organism: Orthohantavirus tulaense
# HLA-B*15:17 [8] = experiment: as above; conditions: source organism: Orthohantavirus tulaense
# HLA-A*26:01 [9] = experiment: as above; conditions: source organism: Orthohantavirus tulaense
# HLA-B*46:01 = experiment: as above
# HLA-B*15:01 [10] = experiment: IEDB peptide-MHC binding, purified MHC/competitive/radioactivity; filed as Kd, often an IC50 or EC50 that approximates it; ≥ and ≤ were set here for values at or beyond the usual limits of such assays
# HLA-A*30:01 = experiment: as above
# HLA-A*32:01 = experiment: as above
# HLA-B*08:01 [11] = experiment: as above
# HLA-A*03:01 [12] = experiment: IEDB peptide-MHC binding, purified MHC/direct/fluorescence; filed as Kd, often an IC50 or EC50 that approximates it; ≥ and ≤ were set here for values at or beyond the usual limits of such assays; conditions: source organism: Giardia lamblia ATCC 50803
# HLA-A*69:01 [13] = experiment: as above; conditions: source organism: Giardia lamblia ATCC 50803
# HLA-A*31:01 [14] = experiment: as above; conditions: source organism: Giardia lamblia ATCC 50803
# HLA-B*27:05 = experiment: as above; conditions: source organism: Giardia lamblia ATCC 50803
# HLA-B*58:01 = experiment: as above; conditions: source organism: Giardia lamblia ATCC 50803
# HLA-B*57:01 [15] = experiment: as above; conditions: source organism: Giardia lamblia ATCC 50803
# HLA-A*11:01 [16] = experiment: as above; conditions: source organism: Giardia lamblia ATCC 50803
# HLA-B*07:02 = experiment: as above; conditions: source organism: Giardia lamblia ATCC 50803
# HLA-B*15:17 [17] = experiment: as above; conditions: source organism: Giardia lamblia ATCC 50803
# HLA-B*44:02 = experiment: as above; conditions: source organism: Giardia lamblia ATCC 50803
# HLA-B*08:01 [18] = experiment: as above; conditions: source organism: Giardia lamblia ATCC 50803
# HLA-B*40:01 = experiment: as above; conditions: source organism: Giardia lamblia ATCC 50803
# HLA-A*26:01 [19] = experiment: as above; conditions: source organism: Giardia lamblia ATCC 50803
# HLA-B*15:01 [20] = experiment: as above; conditions: source organism: Giardia lamblia ATCC 50803
# HLA-A*02:01 [21] = experiment: as above; conditions: source organism: Giardia lamblia ATCC 50803
# HLA-A*03:01 [22] = experiment: IEDB peptide-MHC binding, purified MHC/competitive/radioactivity; filed as Kd, often an IC50 or EC50 that approximates it; ≥ and ≤ were set here for values at or beyond the usual limits of such assays; conditions: source organism: Vaccinia virus WR
# HLA-A*31:01 [23] = experiment: as above; conditions: source organism: Vaccinia virus WR
# HLA-A*68:01 = experiment: as above; conditions: source organism: Vaccinia virus WR
# HLA-A*33:01 = experiment: as above; conditions: source organism: Vaccinia virus WR
# HLA-A*11:01 [24] = experiment: as above; conditions: source organism: Vaccinia virus WR
# [25] = source organism: Vaccinia virus WR
# [26] = source organism: Vaccinia virus Copenhagen
# [27] = source organism: Trypanosoma cruzi
# [28] = source organism: Giardia lamblia ATCC 50803
sequence,measurement,setting,value
EIFSAWISH,IC50,HLA-A*11:01 [1]; source organism: Variola virus,22600 nM
ELEQTYHAKL,Kd,HLA-A*02:02; source organism: Homo sapiens,2840 nM
same,Kd,HLA-A*68:02 [2]; source organism: Homo sapiens,9730 nM
same,Kd,HLA-A*02:03; source organism: Homo sapiens,≥ 94300 nM
same,Kd,HLA-A*02:01 [3]; source organism: Homo sapiens,≥ 40200 nM
same,Kd,HLA-A*02:06; source organism: Homo sapiens,≥ 71200 nM
FKAKWLTPF,Kd,HLA-B*15:03; [25],0.0731 nM
FLTYLDVSV,Kd,HLA-A*02:01 [3]; source organism: Homo sapiens,≤ 1 nM
FMSRKLHRY,Kd,HLA-A*01:01; source organism: Orthohantavirus negraense,9.5 nM
same,Kd,HLA-A*68:02 [4],≥ 20000 nM
same,Kd,HLA-A*03:01 [5],8000 nM
same,Kd,HLA-B*51:01,≥ 20000 nM
same,Kd,HLA-A*69:01 [6],≥ 20000 nM
same,Kd,HLA-B*39:01,≥ 20000 nM
same,Kd,HLA-B*57:01 [7],≥ 20000 nM
same,Kd,HLA-B*27:03,≥ 20000 nM
same,Kd,HLA-B*15:17 [8],≥ 20000 nM
same,Kd,HLA-A*26:01 [9],≥ 20000 nM
same,Kd,HLA-B*46:01; source organism: Orthohantavirus tulaense,≥ 20000 nM
FSALPTNEF,Kd,HLA-B*15:03; [25],0.13 nM
FSIYSVSCF,Kd,HLA-B*15:01 [10]; [26],3.1 nM
same,Kd,HLA-B*15:03; [26],7.64 nM
FSNFSTSHI,Kd,HLA-A*30:01; [25],7500 nM
same,Kd,HLA-A*32:01; [25],18400 nM
same,Kd,HLA-B*08:01 [11]; [25],3110 nM
same,Kd,HLA-B*15:01 [10]; [25],110 nM
same,Kd,HLA-B*15:03; [25],510 nM
GLLPLLLLLG,Kd,HLA-A*02:02; [27],79.2 nM
same,Kd,HLA-A*68:02 [2]; [27],7010 nM
same,Kd,HLA-A*02:03; [27],109 nM
same,Kd,HLA-A*02:01 [3]; [27],2.69 nM
same,Kd,HLA-A*02:06; [27],15.3 nM
ISAFPKNDF,Kd,HLA-B*15:03; [25],663 nM
ISWMMKLGI,Kd,HLA-A*30:01; [25],6580 nM
same,Kd,HLA-A*32:01; [25],42.1 nM
same,Kd,HLA-B*08:01 [11]; [25],4840 nM
same,Kd,HLA-B*15:01 [10]; [25],546 nM
same,Kd,HLA-B*15:03; [25],404 nM
ITFHNQRDF,Kd,HLA-A*03:01 [12],≥ 20000 nM
same,Kd,HLA-A*69:01 [13],≥ 20000 nM
same,Kd,HLA-A*31:01 [14],≥ 20000 nM
same,Kd,HLA-B*27:05,≥ 20000 nM
same,Kd,HLA-B*58:01,165 nM
same,Kd,HLA-A*01:01; [28],≥ 20000 nM
same,Kd,HLA-B*57:01 [15],125 nM
same,Kd,HLA-A*11:01 [16],≥ 20000 nM
same,Kd,HLA-B*07:02,≥ 20000 nM
same,Kd,HLA-B*15:17 [17],5.2 nM
same,Kd,HLA-B*44:02,≥ 20000 nM
same,Kd,HLA-B*08:01 [18],≥ 20000 nM
same,Kd,HLA-B*40:01,≥ 20000 nM
same,Kd,HLA-A*26:01 [19],≥ 20000 nM
same,Kd,HLA-B*15:01 [20],146 nM
same,Kd,HLA-A*02:01 [21],≥ 20000 nM
same,Kd,HLA-B*46:01; [28],≥ 20000 nM
KAFNHASVK,Kd,HLA-A*03:01 [22],6.13 nM
same,Kd,HLA-A*31:01 [23],29.7 nM
same,Kd,HLA-A*68:01,17.6 nM
same,Kd,HLA-A*33:01,≥ 47700 nM
same,Kd,HLA-A*30:01; [25],34.7 nM
same,Kd,HLA-A*11:01 [24],9.31 nM
same,Kd,HLA-A*32:01; [25],3640 nM
same,Kd,HLA-B*08:01 [11]; [25],751 nM
same,Kd,HLA-B*15:01 [10]; [25],462 nM
same,Kd,HLA-B*15:03; [25],282 nM
KLTKDFSAL,Kd,HLA-A*02:02; source organism: Homo sapiens,20.5 nM
same,Kd,HLA-A*02:03; source organism: Homo sapiens,34.2 nM
same,Kd,HLA-A*02:01 [3]; source organism: Homo sapiens,550 nM
KTMAVTYEL,Kd,HLA-A*30:01; [26],10900 nM
same,Kd,HLA-A*32:01; [26],0.578 nM
same,Kd,HLA-B*08:01 [11]; [26],18.7 nM
same,Kd,HLA-B*15:01 [10]; [26],5.51 nM
same,Kd,HLA-B*15:03; [26],34.5 nM
LGGILPWTK,IC50,HLA-A*11:01 [1]; [25],536 nM
LLHQSSDKFV,Kd,HLA-A*02:02; source organism: Homo sapiens,14.4 nM
same,Kd,HLA-A*68:02 [2]; source organism: Homo sapiens,2970 nM
same,Kd,HLA-A*02:03; source organism: Homo sapiens,78.3 nM
same,Kd,HLA-A*02:01 [3]; source organism: Homo sapiens,808 nM
same,Kd,HLA-A*02:06; source organism: Homo sapiens,13500 nM
LMYILGTYG,Kd,HLA-A*30:01; [25],3750 nM
same,Kd,HLA-A*32:01; [25],≥ 23300 nM
same,Kd,HLA-B*08:01 [11]; [25],951 nM
same,Kd,HLA-B*15:01 [10]; [25],62 nM
same,Kd,HLA-B*15:03; [25],125 nM
LSTTRFQSM,Kd,HLA-A*30:01; [25],1080 nM
same,Kd,HLA-A*32:01; [25],9770 nM
same,Kd,HLA-B*08:01 [11]; [25],3970 nM
same,Kd,HLA-B*15:01 [10]; [25],5820 nM
same,Kd,HLA-B*15:03; [25],2500 nM
QKFPYEGGK,IC50,HLA-A*11:01 [1]; source organism: Vaccinia virus,≥ 140000 nM
RLVRPFLVV,Kd,HLA-B*15:03; [25],15.9 nM
RQYMFYKIF,Kd,HLA-A*32:01; [26],19.3 nM
same,Kd,HLA-B*15:03; [26],0.0698 nM
SIPNFNQYEA,Kd,HLA-A*02:01 [3]; source organism: Lassa virus Josiah,≥ 25000 nM
SLADEAEVHL,Kd,HLA-A*02:01 [3]; source organism: Homo sapiens,29 nM
SLFEGIDFYT,Kd,HLA-A*02:01 [3]; source organism: Homo sapiens,1.1 nM
TMVNSLTYF,Kd,HLA-B*15:03; [25],0.126 nM
TQALQLFLR,IC50,HLA-A*11:01 [1]; source organism: Sudan ebolavirus,2530 nM
WITQCFLPV,Kd,HLA-A*02:01 [3]; source organism: Homo sapiens,173 nM
YVLPRRGPRL,Kd,HLA-A*02:01 [3]; source organism: Hepatitis C virus subtype 3a,3570 nM
